Experimental data published in PMC4057782, “tRNA synthetase counteracts c-Myc to develop functional vasculature”.

Key:
SerRS [1] = molecular target: T1, SerRS (Homo sapiens, UniProt P49591 1-514); assay: SPR; HBS-EP pH 7.4, 1:1 fit; EMSA: 20 mM Tris-HCl pH 8.0, 60 mM KCl, 5 mM MgCl2, 0.1 mg/ml BSA, 10 ng/ul poly(dG-dC), 1 mM DTT, 30 min, room temperature; SPR: 10 mM HEPES pH 7.4, 150 mM NaCl, 0.005% P-20; footprint: 20 mM HEPES pH 7.9, 120 mM KCl, 8 mM MgCl2, 0.2 mM EDTA, 0.5 mM DTT, 0.2 mg/ml BSA, 10 ug/ml poly(dG-dC), 5% glycerol, room temperature; settings: protein: recombinant; tags: C-terminal His tag (pET-20b); chain copies: 2; label: biotin; 3' overhang 3 nt on strand 1
T1 sequence (P49591 whole entry): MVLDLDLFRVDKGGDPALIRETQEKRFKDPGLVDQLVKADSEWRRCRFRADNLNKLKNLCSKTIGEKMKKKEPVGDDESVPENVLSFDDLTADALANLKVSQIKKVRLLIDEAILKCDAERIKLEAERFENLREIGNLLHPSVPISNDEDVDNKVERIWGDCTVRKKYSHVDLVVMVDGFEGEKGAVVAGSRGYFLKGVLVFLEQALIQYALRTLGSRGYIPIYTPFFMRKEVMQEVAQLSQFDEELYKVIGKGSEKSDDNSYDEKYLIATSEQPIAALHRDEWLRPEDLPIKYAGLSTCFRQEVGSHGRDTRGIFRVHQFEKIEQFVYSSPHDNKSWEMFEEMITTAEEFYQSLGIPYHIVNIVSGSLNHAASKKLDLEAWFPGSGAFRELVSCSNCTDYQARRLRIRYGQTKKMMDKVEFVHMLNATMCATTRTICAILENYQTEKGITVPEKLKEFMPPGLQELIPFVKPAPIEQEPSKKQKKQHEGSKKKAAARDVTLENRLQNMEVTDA

SerRS [2] = molecular target: T1, SerRS; assay: EMSA; interaction not affected; EMSA: 20 mM Tris-HCl pH 8.0, 60 mM KCl, 5 mM MgCl2, 0.1 mg/ml BSA, 10 ng/ul poly(dG-dC), 1 mM DTT, 30 min, room temperature; SPR: 10 mM HEPES pH 7.4, 150 mM NaCl, 0.005% P-20; footprint: 20 mM HEPES pH 7.9, 120 mM KCl, 8 mM MgCl2, 0.2 mM EDTA, 0.5 mM DTT, 0.2 mg/ml BSA, 10 ug/ml poly(dG-dC), 5% glycerol, room temperature; settings: protein: recombinant; tags: C-terminal His tag (pET-20b); chain copies: 2; label: 5' 32P
MAX = MAX (Homo sapiens, UniProt P61244 1-160); assay: EMSA; MAX/MAX homodimer, not displaced by SerRS; EMSA: 20 mM Tris-HCl pH 8.0, 60 mM KCl, 5 mM MgCl2, 0.1 mg/ml BSA, 10 ng/ul poly(dG-dC), 1 mM DTT, 30 min, room temperature; SPR: 10 mM HEPES pH 7.4, 150 mM NaCl, 0.005% P-20; footprint: 20 mM HEPES pH 7.9, 120 mM KCl, 8 mM MgCl2, 0.2 mM EDTA, 0.5 mM DTT, 0.2 mg/ml BSA, 10 ug/ml poly(dG-dC), 5% glycerol, room temperature; settings: protein: recombinant; tags: C-terminal His tag; chain copies: 2; label: 5' 32P
Sequence of MAX (P61244 whole entry): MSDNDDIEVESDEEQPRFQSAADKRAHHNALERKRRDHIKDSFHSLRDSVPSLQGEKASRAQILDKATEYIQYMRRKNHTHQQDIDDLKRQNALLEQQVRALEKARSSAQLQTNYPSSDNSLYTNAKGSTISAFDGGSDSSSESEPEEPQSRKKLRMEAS

SerRS [3] = molecular target: T1, SerRS; assay: EMSA; 5 mM Mg2+; EMSA: 20 mM Tris-HCl pH 8.0, 60 mM KCl, 5 mM MgCl2, 0.1 mg/ml BSA, 10 ng/ul poly(dG-dC), 1 mM DTT, 30 min, room temperature; SPR: 10 mM HEPES pH 7.4, 150 mM NaCl, 0.005% P-20; footprint: 20 mM HEPES pH 7.9, 120 mM KCl, 8 mM MgCl2, 0.2 mM EDTA, 0.5 mM DTT, 0.2 mg/ml BSA, 10 ug/ml poly(dG-dC), 5% glycerol, room temperature; settings: protein: recombinant; tags: C-terminal His tag (pET-20b); chain copies: 2; label: 5' 32P
c-Myc;MAX = c-Myc;MAX (Homo sapiens;Homo sapiens, UniProt P01106;P61244 16-454;1-160, |); assay: EMSA; competed off by SerRS at same concentrations; EMSA: 20 mM Tris-HCl pH 8.0, 60 mM KCl, 5 mM MgCl2, 0.1 mg/ml BSA, 10 ng/ul poly(dG-dC), 1 mM DTT, 30 min, room temperature; SPR: 10 mM HEPES pH 7.4, 150 mM NaCl, 0.005% P-20; footprint: 20 mM HEPES pH 7.9, 120 mM KCl, 8 mM MgCl2, 0.2 mM EDTA, 0.5 mM DTT, 0.2 mg/ml BSA, 10 ug/ml poly(dG-dC), 5% glycerol, room temperature; settings: protein: recombinant;recombinant; tags: C-terminal His tag;C-terminal His tag; label: 5' 32P
Sequence of c-Myc;MAX (P01106 16-454, chain 1 of 2): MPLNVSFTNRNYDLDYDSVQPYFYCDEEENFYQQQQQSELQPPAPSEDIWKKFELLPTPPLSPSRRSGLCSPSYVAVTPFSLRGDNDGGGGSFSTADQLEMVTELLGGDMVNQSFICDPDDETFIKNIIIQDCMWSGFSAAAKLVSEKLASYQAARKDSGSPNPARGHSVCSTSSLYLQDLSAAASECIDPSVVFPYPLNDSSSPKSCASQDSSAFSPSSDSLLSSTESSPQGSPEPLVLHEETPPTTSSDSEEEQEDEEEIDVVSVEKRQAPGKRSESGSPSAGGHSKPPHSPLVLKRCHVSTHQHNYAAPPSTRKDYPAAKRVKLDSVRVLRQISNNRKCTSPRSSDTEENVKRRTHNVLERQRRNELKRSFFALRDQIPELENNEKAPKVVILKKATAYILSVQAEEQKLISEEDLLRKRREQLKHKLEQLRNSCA
Sequence of c-Myc;MAX (P61244 whole entry, chain 2 of 2): as the sequence (P61244 whole entry) above

SerRS [4] = molecular target: T1, SerRS; assay: EMSA; minimal binding site; EMSA: 20 mM Tris-HCl pH 8.0, 60 mM KCl, 5 mM MgCl2, 0.1 mg/ml BSA, 10 ng/ul poly(dG-dC), 1 mM DTT, 30 min, room temperature; SPR: 10 mM HEPES pH 7.4, 150 mM NaCl, 0.005% P-20; footprint: 20 mM HEPES pH 7.9, 120 mM KCl, 8 mM MgCl2, 0.2 mM EDTA, 0.5 mM DTT, 0.2 mg/ml BSA, 10 ug/ml poly(dG-dC), 5% glycerol, room temperature; settings: protein: recombinant; tags: C-terminal His tag (pET-20b); chain copies: 2; label: 5' 32P

B1: VEGFA promoter SPR duplex (dsDNA)
DNA 1: GGCGGGGCGGAGCCATGCGCCCCCCCCTTTATA
DNA 2: AAAGGGGGGGGCGCATGGCTCCGCCCCGCC
modifications: 3' biotin on strand 1
- Kd (SerRS [1]): 265 nM

B2: 27-bp E-box double mutant CTTACG (dsDNA)
DNA 1: GGCGGGGCGGAGCCTTACGCCCCCCCC
DNA 2: GGGGGGGGCGTAAGGCTCCGCCCCGCC
- binding result (SerRS [2]): binds

B3: VEGFA promoter 27-bp (-62 to -36) (dsDNA)
DNA 1: GGCGGGGCGGAGCCATGCGCCCCCCCC
DNA 2: GGGGGGGGCGCATGGCTCCGCCCCGCC
- binding result (MAX): binds
- Kd (SerRS [3]): 212 nM
- binding result (c-Myc;MAX): binds

B4: VEGFA minimal SerRS site (-59 to -38) (dsDNA)
DNA 1: GGGCGGAGCCATGCGCCCCCCC
DNA 2: GGGGGGGCGCATGGCTCCGCCC
- binding result (SerRS [4]): binds
